Where two headings read alike, the source gives them in different places.
T1: C-terminal topoisomerase domain of Sulfolobus solfataricus reverse gyrase TopR1 (Sulfolobus solfataricus P2, UniProt Q97ZZ8 605-1242)
T1 sequence (looked up): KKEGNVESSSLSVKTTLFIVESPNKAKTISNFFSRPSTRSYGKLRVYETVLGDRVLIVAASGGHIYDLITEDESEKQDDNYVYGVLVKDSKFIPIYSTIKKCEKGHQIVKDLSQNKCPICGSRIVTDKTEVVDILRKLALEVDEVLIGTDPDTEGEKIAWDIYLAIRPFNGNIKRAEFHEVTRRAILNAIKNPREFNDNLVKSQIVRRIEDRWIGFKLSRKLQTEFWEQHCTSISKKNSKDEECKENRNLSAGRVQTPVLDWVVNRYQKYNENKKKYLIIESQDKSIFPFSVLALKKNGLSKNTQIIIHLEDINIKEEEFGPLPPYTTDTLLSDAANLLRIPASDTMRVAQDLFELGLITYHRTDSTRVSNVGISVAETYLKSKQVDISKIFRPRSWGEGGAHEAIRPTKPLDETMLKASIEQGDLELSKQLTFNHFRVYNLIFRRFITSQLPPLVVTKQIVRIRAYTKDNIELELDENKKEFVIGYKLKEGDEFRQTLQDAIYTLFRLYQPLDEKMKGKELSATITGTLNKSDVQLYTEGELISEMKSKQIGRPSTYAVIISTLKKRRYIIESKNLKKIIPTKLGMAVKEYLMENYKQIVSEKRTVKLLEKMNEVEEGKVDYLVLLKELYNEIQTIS

B1: N-terminal ATPase (helicase-like) domain of Sulfolobus solfataricus reverse gyrase TopR1 (domain or fragment, Sulfolobus solfataricus P2, UniProt Q97ZZ8 1-607, looked up)
chain: MTSINKVPPSIYTRSCPNCGGNISSQRLFNGSVCESCLKDDREFSNLSDLINILSENSNLKNLTQIRDVLEEYKKVEEIFGKLLNNSKPIGPQRSWTIRFLRGESFAIIAPPGLGKTTFGLIMSLYNATRNRKSIIIFPTRTLISQTVDKLAKFSELYSYSPRILYNKQSPTQTENILDQLKSGNFDIFISTNRFVIQNLSELSNIKFDFIFVDDVDAALKSGKSAKAILRLVGFTDEDIQTTMKLLRENIGEEEKFGKIQEIRESRLKDKIVIFSSATISRGNPILSSLMGFRPGSSVIYLRNIYDSYIDLTQTCKGQDFEECTLGTVIKLLKRLNDGTLIFVPIDKGAQYADYLASNLRDHGINVESVASSSISKLEKFERGEVSSLVGVATHYGVLVRGIDLPWRVKYSIFVGIPKFKFKIGEYMHPLALTRLLSLVYLVKNDDKVRGLLSYIRKRLRKISPAALAMLAKDIREGKIDDERLKEAYNLVNEYLKDNEFLKKVSDVGDLVIEGDYILMPDYLTYIQASGRTSRLYGANLTTGLSVLLIDNSRLFELLNKKLNLILDEVKWYSLDIDADKLGQVSLSDISAKITEERESLSKIKKE

How the values were obtained:
Assay in all cases: SPR
[1] = molecular target: C-terminal topoisomerase domain of Sulfolobus solfataricus reverse gyrase TopR1 (Sulfolobus solfataricus P2) (UniProt Q97ZZ8)
[2] = molecular target: T1, C-terminal topoisomerase domain of …
[3] = molecular target: T1, C-terminal topoisomerase domain of …; remark: listed apart in the source
[4] = molecular target: T1, C-terminal topoisomerase domain of …; remark: listed apart in the source

Row | Molecule | Ka [1] | Kd [1] | koff [1] | kon [1] | Ka [2] | Kd [2] | koff [2] | kon [2] | Ka [3] | Kd [3] | koff [3] | kon [3] | Ka [4] | Kd [4] | koff [4] | kon [4]
1 | non-specific DNA-binding protein Smj12 of S. solfataricus (natural protein) | 284 M⁻¹ | 3530 µM | 0.00313 s⁻¹ | 0.887 M⁻¹ s⁻¹ |  |  |  |  |  |  |  |  |  |  |  | 
2 | B1 |  |  |  |  | 2.87e+06 M⁻¹ | 0.349 µM | 0.00152 s⁻¹ | 4350 M⁻¹ s⁻¹ | 6.32e+06 M⁻¹ | 0.158 µM | 0.00109 s⁻¹ | 6900 M⁻¹ s⁻¹ | 7.59e+06 M⁻¹ | 0.132 µM | 0.00187 s⁻¹ | 14200 M⁻¹ s⁻¹
